Test results from patent EP2468858B1.

Target: FGF-21 receptor on differentiated 3T3-L1 fat cells (mouse)
Test: cell-based or functional assay

Glucose uptake CPM of 3T3-L1 fat cells at 0 nM protein (baseline): 1880 CPM
Glucose uptake CPM of 3T3-L1 fat cells at 0.03 nM protein: 1800 CPM
Glucose uptake CPM of 3T3-L1 fat cells at 0.15 nM protein: 2110 CPM
Glucose uptake CPM of 3T3-L1 fat cells at 0.8 nM protein: 2200 CPM
Glucose uptake CPM of 3T3-L1 fat cells at 4 nM protein: 3300 CPM
Glucose uptake CPM of 3T3-L1 fat cells at 20 nM protein: 5130 CPM
Glucose uptake CPM of 3T3-L1 fat cells at 100 nM protein: 5320 CPM
Substance: recombinant human FGF-21 (from Chongqing Fagen Biomedical Inc.) (from UniProt Q9NSA1 29-209) (ligand)
